Measurements as given in US20070238862A1 (published 2007).
No end group written: not given here.

T1: human ChemerinR (human, UniProt Q99788 3-373)
T1 sequence: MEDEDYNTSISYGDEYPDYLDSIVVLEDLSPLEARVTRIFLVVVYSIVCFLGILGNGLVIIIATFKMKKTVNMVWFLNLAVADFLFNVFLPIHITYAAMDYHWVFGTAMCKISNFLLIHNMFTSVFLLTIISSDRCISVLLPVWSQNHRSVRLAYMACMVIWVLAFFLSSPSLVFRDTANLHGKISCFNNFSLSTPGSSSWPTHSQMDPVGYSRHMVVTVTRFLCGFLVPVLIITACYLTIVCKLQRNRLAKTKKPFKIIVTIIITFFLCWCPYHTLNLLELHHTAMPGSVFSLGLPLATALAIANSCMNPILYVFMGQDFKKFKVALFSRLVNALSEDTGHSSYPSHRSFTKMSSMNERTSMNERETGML


Target: T1, human ChemerinR
Assay: cell-based or functional assay

Row | Binder | EC50 (nM), Calcium flux-Aequoscreen assay on ChemerinR expressing cells [nM]
1 | YVPGQFAFS | 43.8
2 | LFPGQFAFS | 66.3
3 | YFPGQFAFD-NH2 [YFPGQFAFD-CONH2] | 4.3
4 | IFPGQFAFS | 25.8
5 | FLPGQFAFS | 29.1
